This note sets out measurements from publication PMC3157015 (Biochemical and biophysical research communications, 2011).

One may read the Kd as the concentration at which binding is half-saturated.

Assay [1] addresses T1, Glutaminase Interacting Protein (GIP), recombinant (UniProt O14907 1-124).
T1 sequence (looked up): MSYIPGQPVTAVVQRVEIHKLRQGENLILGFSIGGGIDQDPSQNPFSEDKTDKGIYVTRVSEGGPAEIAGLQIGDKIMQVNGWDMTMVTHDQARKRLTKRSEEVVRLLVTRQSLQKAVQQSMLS
The assay is described as follows: NMR titration.

The target in assay [2] is T1, Glutaminase Interacting Protein (GIP), …. The assay is described as follows: NMR titration. The source holds these as a separate data set.

No end group written: not given here.

As for RDGDFQTEV-OH [BAI2 C-terminal peptide (RDGDFQTEV-COOH)], in assay [1], the “KD from residue A66 of GIP” value was 86.6 µM, the “KD from residue D38 of GIP” value stood at 92.5 µM, the “KD from residue E17 of GIP” value was 64.8 µM and the “KD from residue E62 of GIP” value amounted to 102 µM. In assay [1], the “KD from residue E102 of GIP” value was 118 µM, the “KD from residue F46 of GIP” value was found to be 138 µM, the “KD from residue L71 of GIP” value is 85.8 µM and the “KD from residue N81 of GIP” value amounted to 84.3 µM. For the same molecule, the “KD from residue T86 of GIP” value in assay [1] worked out at 104 µM. Moreover, the dissociation constant Kd in assay [2] amounted to 97.8 µM.
